Values belong to the binder of their own block, whether it stands above or below them. Bridge positions count the residues as written; N and C are the ends. Square brackets hold non-standard residues; d marks the D form. Ends that are not written are not given here. Phe(3-COOH) = N[C@@H](Cc1cccc(C(=O)O)c1)C(=O)O; Oic = O=C(O)[C@@H]1C[C@@H]2CCCC[C@@H]2N1; tBuAla = CC(C)(C)C[C@H](N)C(=O)O; Pen = CC(C)(S)[C@H](N)C(=O)O; NMeC = CN[C@@H](CS)C(=O)O; PEG3 = NCCOCCOCCOCCC(=O)O; Orn = NCCC[C@H](N)C(=O)O; Sar = CNCC(=O)O
Legend:
[1] = biological target: recombinant human MASP2 active protease (amino acids 297-686, C-terminal His Tag) (human, UniProt O00187 297-686); assay: cell-based or functional assay
[2] = biological target: T1, recombinant human MASP1 active protease (amino acids 297-699, C-terminal His Tag) (human, UniProt P48740 297-699); assay: cell-based or functional assay
T1 sequence: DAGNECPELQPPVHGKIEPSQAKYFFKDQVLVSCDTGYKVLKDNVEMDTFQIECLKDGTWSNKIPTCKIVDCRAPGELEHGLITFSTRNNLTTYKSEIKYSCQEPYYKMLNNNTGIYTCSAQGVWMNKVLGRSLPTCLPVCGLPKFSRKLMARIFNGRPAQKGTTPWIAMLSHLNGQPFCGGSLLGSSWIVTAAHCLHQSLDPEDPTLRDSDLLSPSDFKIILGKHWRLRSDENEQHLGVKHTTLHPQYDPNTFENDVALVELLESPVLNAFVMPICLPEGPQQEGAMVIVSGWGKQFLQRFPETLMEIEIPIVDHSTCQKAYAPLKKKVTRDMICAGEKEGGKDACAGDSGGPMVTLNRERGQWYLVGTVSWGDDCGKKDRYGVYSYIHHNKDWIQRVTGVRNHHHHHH

recombinant human MASP2 active protease (amino acids 297-686, C-terminal His Tag), sequence (O00187 other isoform, or with tags, fused parts or gaps limits assumed): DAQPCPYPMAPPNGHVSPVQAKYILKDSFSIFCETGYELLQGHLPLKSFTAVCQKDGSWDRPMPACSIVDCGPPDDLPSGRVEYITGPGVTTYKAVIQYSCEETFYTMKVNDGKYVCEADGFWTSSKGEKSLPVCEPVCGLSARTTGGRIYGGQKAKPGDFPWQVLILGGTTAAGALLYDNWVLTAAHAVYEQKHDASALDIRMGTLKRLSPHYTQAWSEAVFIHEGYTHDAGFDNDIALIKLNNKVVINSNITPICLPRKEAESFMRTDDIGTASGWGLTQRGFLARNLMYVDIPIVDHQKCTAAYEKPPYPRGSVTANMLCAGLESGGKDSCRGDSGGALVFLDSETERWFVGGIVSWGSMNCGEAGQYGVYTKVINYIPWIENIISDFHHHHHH

human MASP2 IC50 [1]: 42 nM
human MASP1 IC50 [2]: 2 nM
B1: ((N-Me)G)-IC+SRS-((tBu)A)-PPI-(Pen)+IP-((3-Carboxy)F)-NH2 (peptide)
peptide: [Sar]ICSRS[tBuAla]PPI[Pen]IP[Phe(3-COOH)]-NH2
modifications: disulfide 3-11; N-terminus assumed
SMILES: CC[C@H](C)[C@H](NC(=O)CNC)C(=O)N[C@H]1CSSC(C)(C)[C@@H](C(=O)N[C@H](C(=O)N2CCC[C@H]2C(=O)N[C@@H](Cc2cccc(C(=O)O)c2)C(N)=O)[C@@H](C)CC)NC(=O)[C@H]([C@@H](C)CC)NC(=O)[C@@H]2CCCN2C(=O)[C@@H]2CCCN2C(=O)[C@H](CC(C)(C)C)NC(=O)[C@H](CO)NC(=O)[C@H](CCCNC(=N)N)NC(=O)[C@H](CO)NC1=O

human MASP2 IC50 [1]: 96 nM
human MASP1 IC50 [2]: 2.1 nM
B2: ((N-Me)G)-IC+SRSLP-(Oic)-I-(Pen)+IPD-(PEG2(13 atoms))-NH2 (peptide)
peptide: [Sar]ICSRSLP[Oic]I[Pen]IPD[PEG3]-NH2
modifications: disulfide 3-11; N-terminus assumed
SMILES: CC[C@H](C)[C@H](NC(=O)CNC)C(=O)N[C@H]1CSSC(C)(C)[C@@H](C(=O)N[C@H](C(=O)N2CCC[C@H]2C(=O)N[C@@H](CC(=O)O)C(=O)NCCOCCOCCOCCC(N)=O)[C@@H](C)CC)NC(=O)[C@H]([C@@H](C)CC)NC(=O)[C@@H]2C[C@@H]3CCCC[C@@H]3N2C(=O)[C@@H]2CCCN2C(=O)[C@H](CC(C)C)NC(=O)[C@H](CO)NC(=O)[C@H](CCCNC(=N)N)NC(=O)[C@H](CO)NC1=O

human MASP2 IC50 [1]: 73 nM
human MASP1 IC50 [2]: 2 nM
B3: VIC+SRS-((tBu)A)-PPI-(Pen)+IPD-NH2 (peptide)
peptide: VICSRS[tBuAla]PPI[Pen]IPD-NH2
modifications: disulfide 3-11; N-terminus assumed
SMILES: CC[C@H](C)[C@H](NC(=O)[C@@H](N)C(C)C)C(=O)N[C@H]1CSSC(C)(C)[C@@H](C(=O)N[C@H](C(=O)N2CCC[C@H]2C(=O)N[C@@H](CC(=O)O)C(N)=O)[C@@H](C)CC)NC(=O)[C@H]([C@@H](C)CC)NC(=O)[C@@H]2CCCN2C(=O)[C@@H]2CCCN2C(=O)[C@H](CC(C)(C)C)NC(=O)[C@H](CO)NC(=O)[C@H](CCCNC(=N)N)NC(=O)[C@H](CO)NC1=O

human MASP2 IC50 [1]: 225 nM
human MASP1 IC50 [2]: 1.95 nM
B4: AIC+SRS-((tBu)A)-PPI-((N-Me)C)+IPD-NH2 (peptide)
peptide: AICSRS[tBuAla]PPI[NMeC]IPD-NH2
modifications: disulfide 3-11; N-terminus assumed
SMILES: CC[C@H](C)[C@H](NC(=O)[C@H](C)N)C(=O)N[C@H]1CSSC[C@@H](C(=O)N[C@H](C(=O)N2CCC[C@H]2C(=O)N[C@@H](CC(=O)O)C(N)=O)[C@@H](C)CC)N(C)C(=O)[C@H]([C@@H](C)CC)NC(=O)[C@@H]2CCCN2C(=O)[C@@H]2CCCN2C(=O)[C@H](CC(C)(C)C)NC(=O)[C@H](CO)NC(=O)[C@H](CCCNC(=N)N)NC(=O)[C@H](CO)NC1=O

human MASP2 IC50 [1]: 130 nM
human MASP1 IC50 [2]: 2 nM
B5: ((N-Me)G)-IC+SRS-((tBu)A)-PPI-(Pen)+IPD-(Orn)-(Orn)-(Orn)-NH2 (peptide)
peptide: [Sar]ICSRS[tBuAla]PPI[Pen]IPD[Orn][Orn][Orn]-NH2
modifications: disulfide 3-11; N-terminus assumed
SMILES: CC[C@H](C)[C@H](NC(=O)CNC)C(=O)N[C@H]1CSSC(C)(C)[C@@H](C(=O)N[C@H](C(=O)N2CCC[C@H]2C(=O)N[C@@H](CC(=O)O)C(=O)N[C@@H](CCCN)C(=O)N[C@@H](CCCN)C(=O)N[C@@H](CCCN)C(N)=O)[C@@H](C)CC)NC(=O)[C@H]([C@@H](C)CC)NC(=O)[C@@H]2CCCN2C(=O)[C@@H]2CCCN2C(=O)[C@H](CC(C)(C)C)NC(=O)[C@H](CO)NC(=O)[C@H](CCCNC(=N)N)NC(=O)[C@H](CO)NC1=O

human MASP2 IC50 [1]: 76 nM
human MASP1 IC50 [2]: 2 nM
B6: (Orn)-IC+SRSLP-(Oic)-I-(Pen)+IPD-NH2 (peptide)
peptide: [Orn]ICSRSLP[Oic]I[Pen]IPD-NH2
modifications: disulfide 3-11; N-terminus assumed
SMILES: CC[C@H](C)[C@H](NC(=O)[C@@H](N)CCCN)C(=O)N[C@H]1CSSC(C)(C)[C@@H](C(=O)N[C@H](C(=O)N2CCC[C@H]2C(=O)N[C@@H](CC(=O)O)C(N)=O)[C@@H](C)CC)NC(=O)[C@H]([C@@H](C)CC)NC(=O)[C@@H]2C[C@@H]3CCCC[C@@H]3N2C(=O)[C@@H]2CCCN2C(=O)[C@H](CC(C)C)NC(=O)[C@H](CO)NC(=O)[C@H](CCCNC(=N)N)NC(=O)[C@H](CO)NC1=O

human MASP2 IC50 [1]: 98 nM
human MASP1 IC50 [2]: 2.1 nM
B7: AIC+SRSLP-(Oic)-I-(Pen)+I-NH2 (peptide)
peptide: AICSRSLP[Oic]I[Pen]I-NH2
modifications: disulfide 3-11; N-terminus assumed
SMILES: CC[C@H](C)[C@H](NC(=O)[C@H]1NC(=O)[C@H]([C@@H](C)CC)NC(=O)[C@@H]2C[C@@H]3CCCC[C@@H]3N2C(=O)[C@@H]2CCCN2C(=O)[C@H](CC(C)C)NC(=O)[C@H](CO)NC(=O)[C@H](CCCNC(=N)N)NC(=O)[C@H](CO)NC(=O)[C@@H](NC(=O)[C@@H](NC(=O)[C@H](C)N)[C@@H](C)CC)CSSC1(C)C)C(N)=O

Source: patent publication US20210246166A1 (Bayer, published 2021)
